Laboratory results: the supplement of paper PMC11246515
± gives the standard deviation of the averaged measurements.

Test: total protein half-life in vivo (active degradation + dilution); higher = more stable protein
[1] = E. coli NCM3722 delta-clpP delta-lon delta-hslV, growth: N-lim chemostat, doubling time 6 h
[2] = wild type E. coli NCM3722, growth: C-lim chemostat, doubling time 3 h
[3] = wild type E. coli NCM3722, growth: C-lim chemostat, doubling time 6 h
[4] = wild type E. coli NCM3722, growth: C-lim chemostat, doubling time 12 h
[5] = wild type E. coli NCM3722, growth: P-lim chemostat, doubling time 12 h
[6] = E. coli NCM3722 delta-clpP, growth: N-lim chemostat, doubling time 6 h
[7] = E. coli NCM3722 delta-hslV, growth: N-lim chemostat, doubling time 6 h
[8] = E. coli NCM3722 delta-lon, growth: N-lim chemostat, doubling time 6 h
[9] = E. coli NCM3722 delta-smpB, growth: N-lim chemostat, doubling time 6 h
[10] = wild type E. coli NCM3722, growth: N-lim chemostat, doubling time 6 h
[11] = wild type E. coli NCM3722, growth: N-lim chemostat, doubling time 12 h
[12] = wild type E. coli NCM3722, growth: P-lim chemostat, doubling time 6 h

Sequence	total protein half-life in vivo [1]	total protein half-life in vivo [2]	total protein half-life in vivo [3]	total protein half-life in vivo [4]	total protein half-life in vivo [5]	total protein half-life in vivo [6]	total protein half-life in vivo [7]	total protein half-life in vivo [8]	total protein half-life in vivo [9]	total protein half-life in vivo [10]	total protein half-life in vivo [11]	total protein half-life in vivo [12]
MSKKYIIGIDGGSQSTKVVMYDLEGNVVCEGKGLLQPMHTPDADTAEHPDDDLWASLCFAGHDLMSQFAGNKEDIVGIGLGSIRCCRALLKADGTPAAPLISWQDARVTRPYEHTNPDVAYVTSFSGYLTHRLTGEFKDNIANYFGQWPVDYKSWAWSEDAAVMDKFNIPRHMLFDVQMPGTVLGHITPQAALATHFPAGLPVVCTTSDKPVEALGAGLLDDETAVISLGTYIALMMNGKALPKDPVAYWPIMSSIPQTLLYEGYGIRKGMWTVSWLRDMLGESLIQDARAQDLSPEDLLNKKASCVPPGCNGLMTVLDWLTNPWEPYKRGIMIGFDSSMDYAWIYRSILESVALTLKNNYDNMCNEMNHFAKHVIITGGGSNSDLFMQIFADVFNLPARRNAINGCASLGAAINTAVGLGLYPDYATAVDNMVRVKDIFIPIESNAKRYDAMNKGIFKDLTKHTDVILKKSYEVMHGELGNVDSIQSWSNA	2.5 h	2.855 ± 0.0047 h	4.03 ± 0.54 h	8.14 ± 1.2 h	2.92 h							
MNDAIPRPQAKTRKALTPLLEIRNLTKSYDGQHAVDDVSLTIYKGEIFALLGASGCGKSTLLRMLAGFEQPSAGQIMLDGVDLSQVPPYLRPINMMFQSYALFPHMTVEQNIAFGLKQDKLPKAEIASRVNEMLGLVHMQEFAKRKPHQLSGGQRQRVALARSLAKRPKLLLLDEPMGALDKKLRDRMQLEVVDILERVGVTCVMVTHDQEEAMTMAGRIAIMNRGKFVQIGEPEEIYEHPTTRYSAEFIGSVNVFEGVLKERQEDGLVLDSPGLVHPLKVDADASVVDNVPVHVALRPEKIMLCEEPPANGCNFAVGEVIHIAYLGDLSVYHVRLKSGQMISAQLQNAHRHRKGLPTWGDEVRLCWEVDSCVVLTV	6.49 ± 0.28 h	2.93 ± 0.054 h	5.92 ± 0.21 h	11.2 ± 0.37 h	11.8 ± 1.3 h	6.64 ± 0.65 h	5.74 ± 0.33 h	6.22 ± 0.67 h	5.84 ± 0.35 h	5.64 ± 0.26 h	11.5 ± 0.22 h	6.222 ± 0.037 h
MSNTYQKRKASKEYGLYNQCKKLNDDELFRLLDDHNSLKRISSARVLQLRGGQDAVRLAIEFCSDKNYIRRDIGAFILGQIKICKKCEDNVFNILNNMALNDKSACVRATAIESTAQRCKKNPIYSPKIVEQSQITAFDKSTNVRRATAFAISVINDKATIPLLINLLKDPNGDVRNWAAFAININKYDNSDIRDCFVEMLQDKNEEVRIEAIIGLSYRKDKRVLSVLCDELKKNTVYDDIIEAAGELGDKTLLPVLDTMLYKFDDNEIITSAIDKLKRS [P0ADK6]	5.51 ± 0.25 h	2.016 ± 0.02 h	3.9 ± 0.61 h	5.23 ± 0.093 h	4.89 ± 1 h	4.904 ± 0.018 h	2.92 ± 1.5 h	2.68 ± 0.43 h	1.77 ± 0.26 h	2.17 ± 0.22 h	2.62 ± 0.074 h	2.65 ± 0.32 h
MRYHGDMLLTTPVISTLKQNYPDAKIDMLLYQDTIPILSENPEINALYGISNKGAGTFDKIKNVLSLIKTLRANNYDLVINLTDQWMVALLVRCLPARMKISQLYGHRQHGIWKKSFTHLAPIHGTHIVERNLSVLEPLGITDFYTDTTMSYAEDCWKKMRRELDALGVKDHYVVIQPTARQIFKCWDNDKFSKVIDALQQRGYQVVLTCGPSADDLACVDEIARGCETKPITGLAGKTRFPELGALIDHAVLFIGVDSAPGHIAAAVKTPVISLFGATDHVFWRPWTENIIQFWAGNYQKMPTRHELDRNKKYLSVIPAEDVIAATEKLLPEDAPSADRNAQL	6.088 ± 0.042 h	3.141 ± 0.0067 h	6.09 ± 0.63 h	11.7 ± 0.39 h	11.3 ± 1.1 h	6.21 ± 0.39 h	6.87 ± 0.63 h		4.85 ± 0.32 h	5.89 ± 0.19 h	11.9 ± 0.99 h	5.59 ± 0.42 h
MSNNEFHQRRLSATPRGVGVMCNFFAQSAENATLKDVEGNEYIDFAAGIAVLNTGHRHPDLVAAVEQQLQQFTHTAYQIVPYESYVTLAEKINALAPVSGQAKTAFFTTGAEAVENAVKIARAHTGRPGVIAFSGGFHGRTYMTMALTGKVAPYKIGFGPFPGSVYHVPYPSDLHGISTQDSLDAIERLFKSDIEAKQVAAIIFEPVQGEGGFNVAPKELVAAIRRLCDEHGIVMIADEVQSGFARTGKLFAMDHYADKPDLMTMAKSLAGGMPLSGVVGNANIMDAPAPGGLGGTYAGNPLAVAAAHAVLNIIDKESLCERANQLGQRLKNTLIDAKESVPAIAAVRGLGSMIAVEFNDPQTGEPSAAIAQKIQQRALAQGLLLLTCGAYGNVIRFLYPLTIPDAQFDAAMKILQDALSD	3.77 ± 0.53 h	2.883 ± 0.027 h	2.81 ± 0.47 h	4.33 ± 0.44 h	5.88 ± 0.5 h		1 h		0.902 ± 0.068 h	1.25 h	1.67 h	3.46 ± 0.35 h
MKLRDSLAENKSIRLQAEAETWQEAVKIGVDLLVAADVVEPRYYQAILDGVEQFGPYFVIAPGLAMPHGRPEEGVKKTGFSLVTLKKPLEFNHDDNDPVDILITMAAVDANTHQEVGIMQIVNLFEDEENFDRLRACRTEQEVLDLIDRTNAAA		3.32 ± 0.71 h	3.97 ± 0.22 h	7.31 h	7.637 ± 0.049 h				3.07 h	3.02 h		4.94 ± 0.59 h
MVDQAQDTLRPNNRLSDMQATMEQTQAFENRVLERLNAGKTVRSFLITAVELLTEAVNLLVLQVFRKDDYAVKYAVEPLLDGDGPLGDLSVRLKLIYGLGVINRQEYEDAELLMALREELNHDGNEYAFTDDEILGPFGELHCVAALPPPPQFEPADSSLYAMQIQRYQQAVRSTMVLSLTELISKISLKKAFQK [P0AF10]	4.34 ± 0.54 h	2.48 ± 0.33 h	4.42 ± 0.24 h	12.5 ± 1.4 h	12.2 ± 2 h			4.01 h	3.44 h	3.54 h	5.95 ± 0.25 h	4.55 h
